This note sets out measurements from US20240109963A1.

Experiment [1] concerns the target Claudin 18.1 on CHO cells (CHO+ Claudin 18.1) (UniProt P56856). The experiment in a line: flow cytometry, unpurified culture supernatant on CHO_18.1 cells, anti-c-Myc 9E10 + Avidin-PE; parental CHO in the same table: 1.25 %. (A flow cytometer gives signals particle by particle.)
The target is the same in experiment [2]. The experiment in a line: flow cytometry, unpurified culture supernatant on CHO_18.1 cells, anti-c-Myc 9E10 + Avidin-PE; parental CHO in the same table: 1.71 %.

Sequence of Claudin 18.1 on CHO cells (CHO+ Claudin 18.1) (P56856 whole entry): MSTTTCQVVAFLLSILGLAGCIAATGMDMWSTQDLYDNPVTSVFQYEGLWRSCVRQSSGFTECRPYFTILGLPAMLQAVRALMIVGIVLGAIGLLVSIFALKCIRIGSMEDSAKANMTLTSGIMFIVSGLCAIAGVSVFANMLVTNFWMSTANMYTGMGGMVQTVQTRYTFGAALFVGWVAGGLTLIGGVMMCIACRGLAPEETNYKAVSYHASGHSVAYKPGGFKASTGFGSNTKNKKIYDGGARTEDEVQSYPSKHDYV

B1: Claudin 18.2-4G1 (VHH)
VHH: QVQLVESGGGVVQTGGSLRLTCEISGAALSSYTMGWFRQAPGKEREFVAAISWGGSITWYADSVKGRFTISRDNAKNTVYLQMNSLKPEDTAVYYCHAEGQFGALSYPKDYWGQGTQVTVSS
Regarding B1, in experiment [1], the PE-Positive Cells (%) was 6.79%.

B2: Claudin 18.2-3C2 (VHH)
VHH: QVQLVESGGGLVQPGGSLRLSCAASGFTFSNYAMYWVRQAPGKGPEWVSVISGGGGVISYADSVKGRFTISRDNAKNTMYLQMNSLKPEDTAVYYCNAQSAVWWENDYWGQGTQVTVSS
As to B2, the PE-Positive Cells (%) in experiment [2] was determined as 7.32%.
